± gives the uncertainty stated by the source.
B1: SWI/SNF-related matrix-associated actin-dependent regulator of chromatin subfamily B member 1, residues 181 to 248; numbered along this chain, Q12824 (parent)
chain: SQPEVLVPIRLDMEIDGQKLRDAFTWNMNEKLMTPEMFSEILCDDLDLNPLTFVPAIASAIRQQIESY

Variants of: B1
Experiment: abundance fitness (aPCA) (normalised: wild type 0, dead -1); higher = more abundant; growth selection in yeast, the domain comes from the species named
Settings: Homo sapiens

| Variant | abundance fitness |
| --- | --- |
| SQPEVLVPIRLDMEIDGQKLRDAFTWNMNEKLMTPEMFSEILCDDLDLNPLTFVPTIASAIRQQIESY | -0.566 ± 0.11 |
| SQPFVLVPIRLDMEIDGQKLRDAFTWNMNEKLMTPEMFSEILCDDLDLNPLTFVPAIASAIRQQIESY | -0.294 ± 0.098 |
| SQPEVLVPIRLDMELDGQKLRDAFTWNMNEKLMTPEMFSEILCDDLDLNPLTFVPAIASAIRQQIESY | 0.01 ± 0.12 |
| SQPEVLVPIRLDMEIDGQKPRDAFTWNMNEKLMTPEMFSEILCDDLDLNPLTFVPAIASAIRQQIESY | -0.622 ± 0.29 |
| SQPEVLVPIRLDMEIDGQKLRDAFTWNMNEKLMTPEMFSEILCDDLDLNPLTFVPAIASHIRQQIESY | -0.311 ± 0.066 |
| SQPEVLVPIRLDMEIDGQKLRDAGTWNMNEKLMTPEMFSEILCDDLDLNPLTFVPAIASAIRQQIESY | -0.884 ± 0.092 |
| SQPEVLVPIRLDMEIDGQKLRDAFTWNMNEKLMTPEMFSEILCDDLDLNPLTFVPAIASAIRQQITSY | -0.169 ± 0.073 |
| SQPEVLVPIRLDMEIRGQKLRDAFTWNMNEKLMTPEMFSEILCDDLDLNPLTFVPAIASAIRQQIESY | -0.415 ± 0.044 |
| SQPEVLVPIRLDMEIDGQKLRDAFTWNMNEKLMTPEMFSEILCDDLDLNPLTFVPWIASAIRQQIESY | -0.628 ± 0.086 |
| SQPEVLVPIRLDMEIDGQKLRDAFTWNMNEKLMTPEMFSEILCDDLDLNRLTFVPAIASAIRQQIESY | 0.021 ± 0.045 |
| SQPEVLVPIRLDMEIDGQKLRDAFTWNMNEKLMTPEMFPEILCDDLDLNPLTFVPAIASAIRQQIESY | -0.685 ± 0.38 |
| SQPEVLVPIRLDMEIDGQKLRDTFTWNMNEKLMTPEMFSEILCDDLDLNPLTFVPAIASAIRQQIESY | 0.155 ± 0.056 |
| SQPEVLVPIRLDMEIDGQKLRDAFTWNMNEKLMTPEMFSEILCDDLDLNPLGFVPAIASAIRQQIESY | -0.634 ± 0.14 |
| SQPEVLVPIRLDMEIDGQKLRDAFTWNMNEKLMTPEMFSEILCDDLDLNPLTFVPAIASAIRQQIESI | -0.541 ± 0.14 |
| SQPEVLVPIRLDMEIDGWKLRDAFTWNMNEKLMTPEMFSEILCDDLDLNPLTFVPAIASAIRQQIESY | 0.158 ± 0.21 |
| SQPEVLVPIRLDMEIDWQKLRDAFTWNMNEKLMTPEMFSEILCDDLDLNPLTFVPAIASAIRQQIESY | -0.897 ± 0.14 |
| SQPEVLVPIRLDQEIDGQKLRDAFTWNMNEKLMTPEMFSEILCDDLDLNPLTFVPAIASAIRQQIESY | -0.717 ± 0.34 |
| SQPEVLVPIRLDMEIDGQKLRDAFTWNMNEHLMTPEMFSEILCDDLDLNPLTFVPAIASAIRQQIESY | -0.169 ± 0.078 |
| SQPEVLVPINLDMEIDGQKLRDAFTWNMNEKLMTPEMFSEILCDDLDLNPLTFVPAIASAIRQQIESY | -0.03 ± 0.31 |
| SQPEVLVPIRLDMEIDGSKLRDAFTWNMNEKLMTPEMFSEILCDDLDLNPLTFVPAIASAIRQQIESY | -0.425 ± 0.099 |
| SQPEVLVPIRLDMEIDGQKLRDAFTWNMNEKLMTPEMFSEILCDDLDLNPLTFVPVIASAIRQQIESY | -0.319 ± 0.052 |
| SQPEVLVPIRLDMEIDGQKLRDAFTWNMNEKLMTPEMFSEILCDDLDLNPLTFVPAIASAIRQQIEHY | -0.089 ± 0.057 |
| SQPEVRVPIRLDMEIDGQKLRDAFTWNMNEKLMTPEMFSEILCDDLDLNPLTFVPAIASAIRQQIESY | -0.078 ± 0.06 |
| SQPEVLVPIRLDMEIDGQCLRDAFTWNMNEKLMTPEMFSEILCDDLDLNPLTFVPAIASAIRQQIESY | 0.128 ± 0.11 |
| SQPEVLVPIRLDMEIDGQKLRDAFTCNMNEKLMTPEMFSEILCDDLDLNPLTFVPAIASAIRQQIESY | -0.673 ± 0.42 |
| SQPEVLVPIRLDMEIDGQKLRDAFTWNMNEKLMTPEMFSEILCDDLDLNPLTFRPAIASAIRQQIESY | -0.22 ± 0.16 |
| SQPEVLVPIRLDMEIDGQKLRDAFTWEMNEKLMTPEMFSEILCDDLDLNPLTFVPAIASAIRQQIESY | -0.822 ± 0.45 |

| Variant | abundance fitness |
| --- | --- |
| SHPEVLVPIRLDMEIDGQKLRDAFTWNMNEKLMTPEMFSEILCDDLDLNPLTFVPAIASAIRQQIESY | -0.266 ± 0.16 |
| SQPEVLVPIRLDMEIDGQKLRDAFTWNMNEKLSTPEMFSEILCDDLDLNPLTFVPAIASAIRQQIESY | -0.743 ± 0.14 |
| SQPEVLVPIRLDMEIDGQKLRDAFTWNMNEKLMVPEMFSEILCDDLDLNPLTFVPAIASAIRQQIESY | -0.35 ± 0.15 |
| SQKEVLVPIRLDMEIDGQKLRDAFTWNMNEKLMTPEMFSEILCDDLDLNPLTFVPAIASAIRQQIESY | 0.289 ± 0.09 |
| SQPEVLVPIRLDMEIDGQKLRDAFTWNMNEKLMTPEMFSEILCQDLDLNPLTFVPAIASAIRQQIESY | -0.028 ± 0.11 |
| SQPEVLVPIRLDMEIDGQKLRDAFTWNMNEKLMTPEMFSEILCDDLDLFPLTFVPAIASAIRQQIESY | -0.923 ± 0.12 |
| SQPEVLVPIRLDMEIKGQKLRDAFTWNMNEKLMTPEMFSEILCDDLDLNPLTFVPAIASAIRQQIESY | -0.498 ± 0.081 |
| SQPEVLVPIRLDMEIDGQKLRDAFTWNMNEKLMTPEMFSEILCDDLDLNPLHFVPAIASAIRQQIESY | -0.104 ± 0.22 |
| SQPEVLVPIRLDMEIDGQKLRDAFTWNMNEKLMTPEMFSELLCDDLDLNPLTFVPAIASAIRQQIESY | -0.011 ± 0.036 |
| SQPEVLVPIRLDMEIDGQKLRDAFTWNMNEKLMTPEMFSEILCDDLDLNPLTFVPAWASAIRQQIESY | -0.615 ± 0.2 |
| SQPEVLVPIRLDMEIDGQKLRDADTWNMNEKLMTPEMFSEILCDDLDLNPLTFVPAIASAIRQQIESY | -0.451 ± 0.098 |
| SQPEVLVPIRLDMEIDGQKLRDAFTWNMNEKLMTPEMFSEILMDDLDLNPLTFVPAIASAIRQQIESY | -0.686 ± 0.15 |
| SQPEVLVPIRLDMEIDGQKLRDAFTWNMNEKLMTPEMFSEILCDDLDLNPLTFVPAIASAIRQPIESY | -0.878 ± 0.12 |
| SQPEVLVPIRLDMEIDGQKLRDAFTWNMNEKLMTPEMFSEILCDDLDLNKLTFVPAIASAIRQQIESY | 0.138 ± 0.053 |
| SQPEVLVPIRLDMEIDGQKLRDAFTWNMNEKLMTPEMFSETLCDDLDLNPLTFVPAIASAIRQQIESY | 0.091 ± 0.049 |
| SQPEVLVPIRLDMEIDGQKLRDAFTWNMNEKLMTPEMFSEILWDDLDLNPLTFVPAIASAIRQQIESY | -0.497 ± 0.097 |
| SQPIVLVPIRLDMEIDGQKLRDAFTWNMNEKLMTPEMFSEILCDDLDLNPLTFVPAIASAIRQQIESY | -0.495 ± 0.17 |
| SQPEVLVEIRLDMEIDGQKLRDAFTWNMNEKLMTPEMFSEILCDDLDLNPLTFVPAIASAIRQQIESY | -0.197 ± 0.089 |
| SQPEGLVPIRLDMEIDGQKLRDAFTWNMNEKLMTPEMFSEILCDDLDLNPLTFVPAIASAIRQQIESY | -0.302 ± 0.1 |
| SQPEVLVPARLDMEIDGQKLRDAFTWNMNEKLMTPEMFSEILCDDLDLNPLTFVPAIASAIRQQIESY | -0.784 ± 0.11 |
| SQPEVLVPIRLDMEIDGQKLRDAFTWNMNEKLMTPEMFSEILCDDKDLNPLTFVPAIASAIRQQIESY | 0.211 ± 0.075 |
| SQPEVLVPIRLDMEIDGQKLKDAFTWNMNEKLMTPEMFSEILCDDLDLNPLTFVPAIASAIRQQIESY | 0.011 ± 0.13 |
| SQPEVLVPIRLDMEIDGQKLRDASTWNMNEKLMTPEMFSEILCDDLDLNPLTFVPAIASAIRQQIESY | -0.822 ± 0.098 |
| SQPEVLVPIRLDMEIDGQKARDAFTWNMNEKLMTPEMFSEILCDDLDLNPLTFVPAIASAIRQQIESY | -0.671 ± 0.23 |
| SQPEVLVPIRLDMEIDSQKLRDAFTWNMNEKLMTPEMFSEILCDDLDLNPLTFVPAIASAIRQQIESY | -0.769 ± 0.13 |
| SQPEVLVPIRLDMEIDGQKLRDAFTWPMNEKLMTPEMFSEILCDDLDLNPLTFVPAIASAIRQQIESY | -0.512 ± 0.15 |
| SQPEVLVPIRLDMEIDGQKLRDAFTWNMNEKLMTPEMFSEILCDDLDLNPLTFVPAHASAIRQQIESY | -1.03 ± 0.2 |

| Variant | abundance fitness |
| --- | --- |
| SQPEVLVPIRLFMEIDGQKLRDAFTWNMNEKLMTPEMFSEILCDDLDLNPLTFVPAIASAIRQQIESY | -0.73 ± 0.24 |
| SQPEVLVPIRLDMEIDGQKLRQAFTWNMNEKLMTPEMFSEILCDDLDLNPLTFVPAIASAIRQQIESY | 0.052 ± 0.24 |
| SQPEVLVPIRLDMEIDGQKLRDAFTWNMNEKCMTPEMFSEILCDDLDLNPLTFVPAIASAIRQQIESY | -0.075 ± 0.075 |
| SPPEVLVPIRLDMEIDGQKLRDAFTWNMNEKLMTPEMFSEILCDDLDLNPLTFVPAIASAIRQQIESY | -0.079 ± 0.41 |
| SQPEVLVPIRLDREIDGQKLRDAFTWNMNEKLMTPEMFSEILCDDLDLNPLTFVPAIASAIRQQIESY | -0.703 ± 0.23 |
| SQPEVLGPIRLDMEIDGQKLRDAFTWNMNEKLMTPEMFSEILCDDLDLNPLTFVPAIASAIRQQIESY | -0.873 ± 0.1 |
| SQPEVLVPIRLDMEIDGQKLRDAFTWNMNEKLMTPEMFSEILCDDLDLNELTFVPAIASAIRQQIESY | -0.818 ± 0.13 |
| SQPEVLVPIRLDMEIDGQKLRDAFTWNMNEKLMTPEMFSEILCDDLDLNPLTFVPAIASAIRSQIESY | 0.011 ± 0.052 |
| SQPEVLVPIRLDMEIDGQKLRDAFTWNMNEKLMTPEMFSEILCDDLDLPPLTFVPAIASAIRQQIESY | -0.097 ± 0.068 |
| SQPEVLVPIRLGMEIDGQKLRDAFTWNMNEKLMTPEMFSEILCDDLDLNPLTFVPAIASAIRQQIESY | -0.264 ± 0.5 |
| SQPEVLVPIRLDMEIDGQKLRDAFTWNMNEKLMTPEMFSEILCDDLDPNPLTFVPAIASAIRQQIESY | -0.873 ± 0.18 |
| SQPEVLVPLRLDMEIDGQKLRDAFTWNMNEKLMTPEMFSEILCDDLDLNPLTFVPAIASAIRQQIESY | -0.989 ± 0.28 |
| SQPEVLVPIRLDMEIDGQKLRDACTWNMNEKLMTPEMFSEILCDDLDLNPLTFVPAIASAIRQQIESY | -0.702 ± 0.15 |
| SQPEVLVPIRLDMEIDGQKLRDAFTWNMNERLMTPEMFSEILCDDLDLNPLTFVPAIASAIRQQIESY | -0.113 ± 0.043 |
| SQPEVLVPIRLDMEIDGQKLRDAFTWNMNEKLMTPEMFSEILCDDLDLNPLTFVPEIASAIRQQIESY | -0.134 ± 0.049 |
| SQPEVLVPIRLDMEIDGQALRDAFTWNMNEKLMTPEMFSEILCDDLDLNPLTFVPAIASAIRQQIESY | -0.32 ± 0.17 |
| SQPEVLVPIRLDMEIDGQKLRDAFTWNMNEKKMTPEMFSEILCDDLDLNPLTFVPAIASAIRQQIESY | 0.176 ± 0.058 |
| SQPEVLVPIRLDMYIDGQKLRDAFTWNMNEKLMTPEMFSEILCDDLDLNPLTFVPAIASAIRQQIESY | -0.633 ± 0.35 |
| SQPEVLVPIRLDMEIDGQKLRDAFTWNMNEKLMTPEMFSEILCDDLDINPLTFVPAIASAIRQQIESY | -0.147 ± 0.14 |
| SQPEVLVPIRLDMEIDGQKLRDAFTWNMNEKLMTPEMFSEILCDDLDLNPLTFVPAIASAIRQQIGSY | -0.316 ± 0.075 |
| SQPEVLVPIRLDMEIDGQKLRDAFTWNMNEKLMTPEMFSRILCDDLDLNPLTFVPAIASAIRQQIESY | 0.042 ± 0.033 |
| SQPEVLVPIRLDMEIDGQKLRDAFTWNTNEKLMTPEMFSEILCDDLDLNPLTFVPAIASAIRQQIESY | -0.277 ± 0.24 |
| SQPEVLVPIRLDMEIDGQKLRDAFTWNMNEKLMTPEMFSEILCDDLDLNPLTFVPAIASAIRQQIEST | -0.444 ± 0.15 |
| SQPEVLVPIRLDMEIDGQKLRDAFTWNMNEKLMTPEMFSEILCDDLDLNPLDFVPAIASAIRQQIESY | -0.168 ± 0.31 |
| SQPEVLVPIRLDMEIDGQKLRDAFTWNMNEKLMTPEMFSEILCDDLDLNPLTFVPAIASAINQQIESY | -0.256 ± 0.083 |
